Laboratory results taken from patent US20160017016A1 (AstraZeneca / MedImmune, published 2016).
*1 amine or outer side, *2 acyl side, *3 side chain or, on linkers, in order; H or OH if unused. Primed or numbered codes have the meaning given here. Where no end group is shown, it is not given here. Side-chain parts run from the residue outwards. [ ]: non-standard residue; d: D form. The star is where a group is joined. PEG4′ = 4 PEG units (K(PEGxpalm): Lys with x PEG units and palmitoyl at epsilon N, C-terminal (PEG)4); γGlu = O=C(O)[C@H](CCC(=O)[*:2])N[*:1]; Palmitoyl = CCCCCCCCCCCCCCCC(=O)*; Aib = CC(C)(N)C(=O)O; PEG2′ = 2 PEG units

Molecular target: human glucagon receptor (GCGR) (human, UniProt P47871 26-477)
Assay: cell-based or functional assay

Chain of human glucagon receptor (GCGR) (P47871 26-477): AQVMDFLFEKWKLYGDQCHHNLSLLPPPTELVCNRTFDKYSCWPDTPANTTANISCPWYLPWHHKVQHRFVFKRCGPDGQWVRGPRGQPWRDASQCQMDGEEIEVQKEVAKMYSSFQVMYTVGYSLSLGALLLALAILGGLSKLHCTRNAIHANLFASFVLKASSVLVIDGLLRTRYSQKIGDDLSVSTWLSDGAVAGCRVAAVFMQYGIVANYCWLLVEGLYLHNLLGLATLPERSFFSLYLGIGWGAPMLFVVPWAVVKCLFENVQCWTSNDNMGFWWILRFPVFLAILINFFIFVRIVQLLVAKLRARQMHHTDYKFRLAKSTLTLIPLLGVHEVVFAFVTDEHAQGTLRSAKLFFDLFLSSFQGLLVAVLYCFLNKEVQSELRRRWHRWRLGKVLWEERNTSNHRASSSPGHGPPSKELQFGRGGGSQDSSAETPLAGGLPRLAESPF

cAMP activity, Glcg EC50 nM [nM] | Binder
0.3 | HSQGTFTSDYSKYLDSK([PEG4′-Palmitoyl])RAQDFVQWEV[PEG4′] [g459]
0.03 | HSQGTFTSDYSKYLDEK([γGlu-Palmitoyl])RAQDFVQWLV[PEG4′] [g810]
0.1 | HGQGTFTSDYSKYLDSXRAQDFVQWLV (K(gE-palm) at 17; C-terminal PEG3) [g690]
0.001 | HSQGTFTSDYSKYLDSXRAQDFVQWLE (not fully specified; K(PEG2-PEG2-gE-palm) at 17; C-terminal PEG4) [g966]
0.001 | HSQGTFTSDYSKYLDSRKAQDFVQWLE[PEG4′] (not fully specified (residue 18); printed as HSQGTFTSDYSKYLDSRB1AQDFVQWLEZ4) [g455]
0.002 | HSQGTFTSDYSKYLDSXRAQDFVQWLV (not fully specified; K(PEG2-gE-palm) at 17; C-terminal PEG4) [g965]
0.007 | HSQGTFTSDK([PEG4′-Palmitoyl])SKYLDSSRARDFVAWLV[PEG4′] [g971]
0.02 | H[Aib]QGTFTSDYSKYK([γGlu-Palmitoyl])DSERARDFVAWLV[PEG4′] [g868]
0.006 | H[Aib]QGTFTSDYSKYLDSK([PEG4′-γGlu-Palmitoyl])RARDFVAWLV[PEG4′] [g968]
0.006 | HSQGTFTSDYSKYLDSK([PEG4′-γGlu-Palmitoyl])RARDFVAWLE[PEG2′] [g967]
40 | HSQGTFTSDYSEYLDSK([γGlu-Palmitoyl])RAQDFVQWLV[PEG4′] [g676]
0.6 | HSQGTFTSDYSXYLDSRRAQDFVQWLV (K(gE-palm) at 12; C-terminal PEG4) [g416]
0.08 | HSQGTFTSDYSEYLDSK([γGlu-Palmitoyl])RAADFVQWLV[PEG4′] (not fully specified; printed as HSQGTFTSDYSEYLDSBRAADFVQWLVZ4) [g775]
0.07 | HSQGTFTSDYSKYLDSRAAQK([γGlu-Palmitoyl])FVQWLV[PEG4′] [g809]
0.002 | HSQGTFTSDYSKYLDSXRAQDFVQWLV (not fully specified; K(PEG4-gE-palm) at 17; C-terminal PEG4) [g964]
0.003 | HSQGTFTSDYSKYK([γGlu-Palmitoyl])DSRRAQDFVQWLV[PEG4′] [g426]
0.8 | HGQGTFTSDYSKYLDSXRAQDFVQWLV (K(gE-palm) at 17; C-terminal PEG4) [g430]
0.3 | HSQGTFTSDYSKYLDK([PEG4′-Palmitoyl])RRAQDFVQWEV[PEG4′] [g497]
0.07 | HSQGTFTSDYSKYLDSRRAXDFVQWLV (K(gE-palm) at 20; C-terminal PEG4) [g456]
0.01 | HSQGTFTSDYSKYK([γGlu-Palmitoyl])DEERAQDFVQWLV[PEG4′] [g807]
0.03 | HSQGTFTSDYSKYLDSRRAQDFVQWLV (C-terminal PEG2) [g355]
0.002 | HSQGTFTSDYSKYLDSRKRAQDFVQWLV[PEG4′] (not fully specified (residue 18); printed as HSQGTFTSDYSKYLDSRB1RAQDFVQWLVZ4) [g415]
0.003 | HSQGTFTSDYSKK([PEG4′-Palmitoyl])LDSSRARDFVAWLV[PEG4′] [g970]
9 | HSQGTFTSDYSKYLDSK([γGlu-Palmitoyl])RAQDFVQWEV[PEG4′] [g458]

Molecular target: human GLP-1 receptor (GLP-1R) (human, UniProt P43220 24-463)
Assay: cell-based or functional assay

cAMP activity, GLP1 EC50 nM [nM] | Binder
0.5 | HSQGTFTSDYSKYLDEK([γGlu-Palmitoyl])RAQDFVQWLV[PEG4′] [g810]
0.06 | HGQGTFTSDYSKYLDSXRAQDFVQWLV (K(gE-palm) at 17; C-terminal PEG3) [g690]
0.2 | HSQGTFTSDYSKYLDSXRAQDFVQWLV (K(gE-palm) at 17; C-terminal PEG4) [g414]
0.05 | HSQGTFTSDYSKYLDSRRAQDFVQWLV (C-terminal PEG4) [g356]
0.06 | HGQGTFTSDYSKYLDSXRAQDFVQWLV (K(gE-palm) at 17; C-terminal PEG6) [g692]
0.09 | HGQGTFTSDYSRYLDSK([γGlu-Palmitoyl])RARDFVEWLV[PEG4′] [g719]
1 | HSQGTFTSDYSXYLDSRRAQDFVQWLV (K(gE-palm) at 12; C-terminal PEG4) [g416]
0.09 | HSQGTFTSDYSKYLDSK([γGlu-Palmitoyl])RARDFVAWLV[PEG4′] [g800]
0.05 | HGQGTFTSDYSKYLDSXRAQDFVQWLV (K(gE-palm) at 17; C-terminal PEG2) [g691]
0.3 | HSQGTFTSDYSEYLDSK([γGlu-Palmitoyl])RARDFVAWLV[PEG4′] [g784]
0.07 | HSEGTFTSDYSKYLDSK([γGlu-Palmitoyl])RAQDFVQWLV[PEG4′] [g432]
0.3 | HGQGTFTSDYSEYLDSK([γGlu-Palmitoyl])RARDFVEWLV[PEG4′] [g677]
8 | HSQGTFTSDYSKYLDK([γGlu-Palmitoyl])RRAQDFVQWEV[PEG4′] [g496]
0.08 | HXQGTFTSDYSKYLDSXRAQDFVQWLV (alpha-amino-iso-butyric acid (Aib) at 2; K(gE-palm) at 17; C-terminal PEG4) [g500]
50 | HSQGTFTSDYSKYLDSRRAQXFVQWLV (K(gE-palm) at 21; C-terminal PEG4) [g808]
0.007 | HSQGTFTSDYSKYLDSRKRAQDFVQWLV[PEG4′] (not fully specified (residue 18); printed as HSQGTFTSDYSKYLDSRB1RAQDFVQWLVZ4) [g415]
0.09 | H[Aib]QGTFTSDYSKYLDSK([γGlu-Palmitoyl])RAQDFVAWLV[PEG4′] [g870]
